Measurements published in publication PMC3520067.
pKd: −log10 of the molar value.

Target: H3K4Me3 peptide
Assay: ITC

Substance	pKd
MORC3 CW domain (domain or fragment)	6.22
recombinant SPIN1 (from UniProt Q9Y657 1-262) (natural protein)	5.96
